Measurements published in US20250312475A1.
Like-named read-outs stand apart in the source and are kept apart here.

B1: Binding Protein 2 (protein)
light 1: DFVLTQSPHSLSVTPGESASISCKSSHSLIHGDRNNYLAWYVQKPGRSPQLLIYLASSRASGVPDRFSGSGSDKDFTLKISRVETEDVGTYYCMQGRESPWTFGQGTKVDIKDKTHTASELTQDPAVSVALKQTVTITCRGDSLRSHYASWYQKKPGQAPVLLFYGKNNRPSGIPDRFSGSASGNRASLTITGAQAEDEADYYCSSRDKSGSRLSVFGGGTKLTVLDKTHTRTVAAPSVFIFPPSDEQLKSGTASVVCLLNNFYPREAKVQWKVDNALQSGNSQESVTEQDSKDSTYSLSSTLTLSKADYEKHKVYACEVTHQGLSSPVTKSFNRGEC
heavy 1: EVRLVESGGGLVKPGGSLRLSCSASGFDFDNAWMTWVRQPPGKGLEWVGRITGPGEGWSVDYAESVKGRFTISRDNTKNTLYLEMNNVRTEDTGYYFCARTGKYYDFWSGYPPGEEYFQDWGQGTLVIVSSDKTHTQVHLTQSGPEVRKPGTSVKVSCKAPGNTLKTYDLHWVRSVPGQGLQWMGWISHEGDKKVIVERFKAKVTIDWDRSTNTAYLQLSGLTSGDTAVYYCAKGSKHRLRDYALYDDDGALNWAVDVDYLSNLEFWGQGTAVTVSSDKTHTASTKGPSVFPLAPSSKSTSGGTAALGCLVKDYFPEPVTVSWNSGALTSGVHTFPAVLQSSGLYSLSSVVTVPSSSLGTQTYICNVNHKPSNTKVDKKVEPKSCDKTHTCPPCPAPELLGGPSVFLFPPKPKDTLMISRTPEVTCVVVDVSHEDPEVKFNWYVDGVEVHNAKTKPREEQYNSTYRVVSVLTVLHQDWLNGKEYKCKVSNKALPAPIEKTISKAKGQPREPQVYTLPPCRDELTKNQVSLWCLVKGFYPSDIAVEWESNGQPENNYKTTPPVLDSDGSFFLYSKLTVDKSRWQQGNVFSCSVLHEALHSHYTQKSLSLSPG
heavy 2: RAHLVQSGTAMKKPGASVRVSCQTSGYTFTAHILFWFRQAPGRGLEWVGWIKPQYGAVNFGGGFRDRVTLTRDVYREIAYMDIRGLKPDDTAVYYCARDRSYGDSSWALDAWGQGTTVVVSAASTKGPSVFPLAPSSKSTSGGTAALGCLVKDYFPEPVTVSWNSGALTSGVHTFPAVLQSSGLYSLSSVVTVPSSSLGTQTYICNVNHKPSNTKVDKKVEPKSCDKTHTCPPCPAPELLGGPSVFLFPPKPKDTLMISRTPEVTCVVVDVSHEDPEVKFNWYVDGVEVHNAKTKPREEQYNSTYRVVSVLTVLHQDWLNGKEYKCKVSNKALPAPIEKTISKAKGQPREPQVCTLPPSRDELTKNQVSLSCAVKGFYPSDIAVEWESNGQPENNYKTTPPVLDSDGSFFLVSKLTVDKSRWQQGNVFSCSVLHEALHSHYTQKSLSLSPG
light 2: YIHVTQSPSSLSVSIGDRVTINCQTSQGVGSDLHWYQHKPGRAPKLLIHHTSSVEDGVPSRFSGSGFHTSFNLTISDLQADDIATYYCQVLQFFGRGSRLHIKRTVAAPSVFIFPPSDEQLKSGTASVVCLLNNFYPREAKVQWKVDNALQSGNSQESVTEQDSKDSTYSLSSTLTLSKADYEKHKVYACEVTHQGLSSPVTKSFNRGEC
B2: Binding Protein 3 (protein)
light 1: ASELTQDPAVSVALKQTVTITCRGDSLRSHYASWYQKKPGQAPVLLFYGKNNRPSGIPDRFSGSASGNRASLTITGAQAEDEADYYCSSRDKSGSRLSVFGGGTKLTVLDKTHTDFVLTQSPHSLSVTPGESASISCKSSHSLIHGDRNNYLAWYVQKPGRSPQLLIYLASSRASGVPDRFSGSGSDKDFTLKISRVETEDVGTYYCMQGRESPWTFGQGTKVDIKDKTHTRTVAAPSVFIFPPSDEQLKSGTASVVCLLNNFYPREAKVQWKVDNALQSGNSQESVTEQDSKDSTYSLSSTLTLSKADYEKHKVYACEVTHQGLSSPVTKSFNRGEC
heavy 1: QVHLTQSGPEVRKPGTSVKVSCKAPGNTLKTYDLHWVRSVPGQGLQWMGWISHEGDKKVIVERFKAKVTIDWDRSTNTAYLQLSGLTSGDTAVYYCAKGSKHRLRDYALYDDDGALNWAVDVDYLSNLEFWGQGTAVTVSSDKTHTEVRLVESGGGLVKPGGSLRLSCSASGFDFDNAWMTWVRQPPGKGLEWVGRITGPGEGWSVDYAESVKGRFTISRDNTKNTLYLEMNNVRTEDTGYYFCARTGKYYDFWSGYPPGEEYFQDWGQGTLVIVSSDKTHTASTKGPSVFPLAPSSKSTSGGTAALGCLVKDYFPEPVTVSWNSGALTSGVHTFPAVLQSSGLYSLSSVVTVPSSSLGTQTYICNVNHKPSNTKVDKKVEPKSCDKTHTCPPCPAPELLGGPSVFLFPPKPKDTLMISRTPEVTCVVVDVSHEDPEVKFNWYVDGVEVHNAKTKPREEQYNSTYRVVSVLTVLHQDWLNGKEYKCKVSNKALPAPIEKTISKAKGQPREPQVYTLPPCRDELTKNQVSLWCLVKGFYPSDIAVEWESNGQPENNYKTTPPVLDSDGSFFLYSKLTVDKSRWQQGNVFSCSVLHEALHSHYTQKSLSLSPG
heavy 2: B1 heavy 2
light 2: B1 light 2
B3: V1/V2 directed Ab “a” (antibody, V domains shown)
VH: QVHLTQSGPEVRKPGTSVKVSCKAPGNTLKTYDLHWVRSVPGQGLQWMGWISHEGDKKVIVERFKAKVTIDWDRSTNTAYLQLSGLTSGDTAVYYCAKGSKHRLRDYALYDDDGALNWAVDVDYLSNLEFWGQGTAVTVSS
VL: DFVLTQSPHSLSVTPGESASISCKSSHSLIHGDRNNYLAWYVQKPGRSPQLLIYLASSRASGVPDRFSGSGSDKDFTLKISRVETEDVGTYYCMQGRESPWTFGQGTKVDIK
B4: V1/V2 directed Ab “b” (antibody, V domains shown)
VH: QVQLVESGGGVVQPGTSLRLSCAASQFRFDGYGMHWVRQAPGKGLEWVASISHDGIKKYHAEKVWGRFTISRDNSKNTLYLQMNSLRPEDTALYYCAKDLREDECEEWWSDYYDFGKQLPCAKSRGGLVGIADNWGQGTMVTVSS
VL: QSVLTQPPSVSAAPGQKVTISCSGNTSNIGNNFVSWYQQRPGRAPQLLIYETDKRPSGIPDRFSASKSGTSGTLAITGLQTGDEADYYCATWAASLSSARVFGTGTKVIVL

Experiments:
[1] = target: HIV-1 Env of 20 pseudotyped viruses representing 10 different HIV-1 clades; test: cell-based or functional assay
[2] = target: HIV-1 Env of 20 pseudotyped viruses representing 10 different HIV-1 clades; test: cell-based or functional assay; remark: listed apart in the source

Binder | % VS Neutralized: IC80 < 1 µg/mL (of 20 viruses) [1] [%] | % VS Neutralized: IC80 < 50 µg/mL (of 20 viruses) [1] [%] | Geometric Mean (IC80) [1] [µg/mL] | Median IC80 [1] [µg/mL] | Total VS Neutralized: IC80 < 1 µg/mL (of 20 viruses) [1] [viruses] | Total VS Neutralized: IC80 < 50 µg/mL (of 20 viruses) [1] [viruses] | % VS Neutralized: IC80 < 1 µg/mL (of 20 viruses) [2] [%] | % VS Neutralized: IC80 < 50 µg/mL (of 20 viruses) [2] [%] | Geometric Mean (IC80) [2] [µg/mL] | Total VS Neutralized: IC80 < 1 µg/mL (of 20 viruses) [2] [viruses] | Total VS Neutralized: IC80 < 50 µg/mL (of 20 viruses) [2] [viruses]
B1 | 65 | 90 | 0.222 | 0.375 | 13 | 18 | – | – | – | – | –
B2 | 60 | 90 | 0.287 | 0.469 | 12 | 18 | – | – | – | – | –
B3 | 45 | 55 | 0.094 | – | 9 | 11 | – | – | – | – | –
B4 | – | – | – | – | – | – | 45 | 45 | 0.039 | 9 | 9
